This is an account of results in patent US8663642B2, “Anti-CD70 antibody-drug conjugates and their use for the treatment and prevention of cancer and immune disorders” (priority 2003, dated 2014).

Data set [1] relates to 786-O cells. Kind of data set: 3H-TdR proliferation assay, RCC lines. The format is cell-based, human. As to conditions: 3H-TdR incorporation, 96 hours.
The next data set relates to Caki-1 cells. Description: alamarBlue reduction cell viability (cytotoxicity) assay. As to conditions: Caki-1, alamarBlue reduction, 96 hours. On the procedure:
(§1) 786-O or Caki-1 cells were incubated with graded doses of 1F6-vcAFP or the non-binding control IgG-vcAFP. Cells were incubated for a total of 96 hours. ^3H-thymidine incorporation (upper panel) and reduction of alamarBlue (lower panel) were used to determine proliferation and cell viability, respectively. Data points are expressed as percentages of the untreated control. Error bars represent the standard deviations of values obtained from quadruplicate wells.
(§2) To examine the responses of CD70^+ RCC lines to 1F6 ADCs, cells were seeded between 1,000 to 3,000 cells per well in 100 μl of medium. An additional 100 μl of culture medium containing graded doses of ADCs were added to the wells after cells were allowed to attached overnight. In addition to DNA synthesis, cell viability, as a reflection of the cytotoxic activities of ADCs, was also assayed by the reduction of alamarBlue™ (Biosource International, Camarillo, Calif.). The alamarBlue™ dye was added at a one to four dilution during the last 4 to 24 hours of the incubation. Dye reduction was assessed by fluorescence spectrometry using the excitation and emission wavelengths of 535 nm and 590 nm, respectively. For analysis, the amount of ^3H-TdR incorporated or the extent of alamarBlue™ reduction by the treated cells was compared to that of the untreated control cells.

In data set [2] the test system is 786-O cells. The description is as above. As to conditions: 96 hours. On the procedure:
as §1, §2

A further data set relates to CD70^+ RCC lines. As to conditions: in 4 of the 7 CD70^+ RCC lines tested. On the procedure: as §2
The test system of data set [3] is CD70^+ CD8^+/Vβ17^+ T cells. Kind of data set: In vitro deletion of M1 peptide-specific T cells (flow cytometry, viable counts). The format is cell-based, human. On the procedure:
PBMCs from a normal HLA-A0201donor were stimulated with the M1 peptide for 5 days. 1F6 ADCs or control non-binding IgG (cIgG) ADCs were added to cells to a final concentration of 1 μg/ml. Total viable cell counts were conducted at 24, 48, and 76 hours post drug addition. Total numbers of CD8^+/Vβ17^+ for each culture condition are calculated (upper panel).
FIG. 19: Dose-response comparison of anti-CD70 ADCs on deletion of antigen-specific CD8^+/Vβ17^+ cells. PBMCs from a normal HLA-A0201donor were stimulated with the M1 peptide for 5 days. 1F6 ADCs or control non-binding IgG (cIgG) ADCs were given to cells to the specified final concentrations. The percentages of CD8^+/Vβ17^+ cells 4 days post ADC addition was determined by flow cytometry as in FIG. 17.
To examine CD70 expression on activated antigen-specific T cells, PBMCs from a normal donor expressing HLA-A0201 were stimulated with the M1 peptide. PBMCs were seeded at 2×10^6 cells/ml with 5 μg/ml of M1 peptide in AIMV medium supplemented with 5% human AB serum. IL-2 (Proleukin, Chiron) and IL-15 (R&D Systems, MN) were added to final concentrations of 20 IU/ml and 5 ng/ml, respectively, once every two days beginning on day 2 after culture initiation. The expansion of CD8^+/Vβ17^+ T cells and induction of CD70 on the CD8^+/Vβ17^+ was followed by three-color flow cytometry. Vβ17^+ T cells were identified by the anti-TCRVβ17 mAb clone E17.5F3 (Beckman Coulter, Miami, Fla.).
PBMCs from a normal donor expressing HLA-A0201 were stimulated with the M1 peptide as described in Example 11. On day 5, cells were harvested, washed, and re-seeded at 0.5-1×10^6 cells/ml (approximately 100,000 of CD8^+/Vβ17^+ T cells) in fresh AIMV medium supplemented with 5% human AB, 20 IU/ml of IL-2, and 5 ng/ml of IL-15. 1F6 or control non-binding IgG (cIgG) ADCs were added to some cultures to a final concentration of 1 μg/ml. Total viable cell counts were conducted 24, 48, and 76 hours after ADC addition. Two-color flow cytometry was conducted to determine the percentages of CD8^+/Vβ17^+ cells among the viable cells. The absolute number of CD8^+/Vβ17^+ T cells in each culture was then calculated. […] The effects of 1F6 ADCs on the CD8^+/Vβ17^− cells were also evaluated.
The potency of three 1F6 ADCs was then compared. HLA-A0201 PBMCs were stimulated with the M1 peptide and re-seeded as described for FIG. 18 with the various ADCs at the indicated concentrations (FIG. 19). The percent of CD8^+/Vβ17^+ T cells after a 96-hour incubation was determined.

Data set [4] concerns CD70^+ hematologic cell lines. Description: 3H-TdR proliferation assay, panel of CD70^+ hematologic lines. As to conditions: all the responsive cell lines tested. Type of data set: cell-based, human. On the procedure: (§3) FIG. 5: Effects of anti-CD70 ADCs on the proliferation of transformed hematologic cell lines. A subset of the CD70^+ cell lines shown in FIG. 4 and the CD70^− Jurkat cell line were tested for their sensitivity toward 1F6 ADCs. Graded doses of the 1F6-vcMMAE, 1F6-vcAFP, or the corresponding non-binding control IgG (IgG) ADCs were added to cells at the initiation of culture. Cells were exposed to the ADCs continuously for a total of 96 hours. Proliferation was determined by pulsing with ^3H-TdR during the last 16 hours of incubation. The upper panels show the response of the WSU-NHL and Jurkat lines. The lower panel summaries the responses by the tested cell lines to 1F6-vcMMAE and 1F6-vcAFP in form of IC50s.
A subset of the CD70^+ hematologic lines listed in FIG. 4 was tested for sensitivity to the 1F6 ADCs. These lines were seeded at 5,000 cells per well in 96-well plates in quadruplicates in a total of 200 μl of culture medium containing graded doses of the ADCs as indicated in the FIG. 5 and the accompanying figure legend. Proliferation assays were carried out for 96 hours. Tritiated thymidine (^3H-TdR) incorporation during the last 16 hours of incubation was used to assess DNA synthesis. The responses of a CD70^+ B lymphoma cell line WSU-NHL and the CD70^− Jurkat cells are shown in the upper panels of FIG. 5. […]

Another data set relates to WSU-NHL cells. Kind of data set: 3H-TdR proliferation assay, hematologic lines. Type of data set: cell-based, human. As to conditions: 96 hours, 3H-TdR last 16 hours. On the procedure: as §3
(§4) A subset of the CD70^+ hematologic lines listed in FIG. 4 was tested for sensitivity to the 1F6 ADCs. These lines were seeded at 5,000 cells per well in 96-well plates in quadruplicates in a total of 200 μl of culture medium containing graded doses of the ADCs as indicated in the FIG. 5 and the accompanying figure legend. Proliferation assays were carried out for 96 hours. Tritiated thymidine (^3H-TdR) incorporation during the last 16 hours of incubation was used to assess DNA synthesis. The responses of a CD70^+ B lymphoma cell line WSU-NHL and the CD70^− Jurkat cells are shown in the upper panels of FIG. 5. […] Proliferation inhibitory effects were apparent when the ADCs were used at concentrations higher than 0.005 μg/ml. […] On the other hand, proliferation of the CD70^− Jurkat acute T leukemia cell line was not affected by either 1F6-vcMMAE or 1F6-vcAFP at concentrations as high as 2 μg/ml. […] The responses of other CD70^+ cell lines tested are summarized in the lower panel of FIG. 5. […] Moreover, EBV-LCLs are phenotypically very similar to activated normal B cells.

For another data set, the system named is CD70^− Jurkat cells. Description: 3H-TdR proliferation assay, hematologic lines. Type of data set: cell-based, human. As to conditions: at concentrations as high as 2 μg/ml. On the procedure: as §3, §4

B1: 1F6-vcAFP: anti-CD70 mAb 1F6 linked to auristatin phenylalanine phenylenediamine by the valine-citrulline (vc) dipeptide linker (conjugate)
VH: QIQLVQSGPEVKKPGETVKISCKASGYTFTNYGMNWVKQAPGKGLKWMGWINTYTGEPTYADAFKGRFAFSLETSASTAYLQINNLKNEDTATYFCARDYGDYGMDYWGQGTSVTVSS
VL: DIVLTQSPASLAVSLGQRATISCRASKSVSTSGYSFMHWYQQKPGQPPKLLIYLASNLESGVPARFSGSGSGTDFTLNIHPVEEEDAATYYCQHSREVPWTFGGGTKLEIKR
modifications: non-natural residues
notes: anti-CD70 mAb 1F6 linked to auristatin phenylalanine phenylenediamine by the valine-citrulline (vc) dipeptide linker
On to B1, for which the “concentration at which maximal proliferation inhibitory effects were achieved” value with 786-O cells [1] is given as “lower than 0.1 μg/ml”. For the same molecule, the “concentration at which maximal cytotoxic effects were achieved” value in the data set on Caki-1 cells and in the data set with 786-O cells [2] was “lower than 0.1 μg/ml” in each case. In addition, the “IC50 values to induce cytotoxicity” value in the data set on CD70^+ RCC lines was “lower than 20 ng/ml”. Moreover, the “number of CD8^+/Vβ17^+ T cells” value in data set [3] (1 μg/ml, 76 hours after ADC addition) is “Virtually no expansion”. Also, the “CD8^+/Vβ17^+ cells, of the control untreated culture” value in data set [3] (1 μg/ml, end of the experiment) is less than 40%. Further, the “inhibition of CD8^+/Vβ17^+ T cell expansion” value in data set [3] (96-hour incubation) is “dose-dependent inhibition”. Moreover, in data set [4], the relative inhibitory activity result was “more potent inhibitory activity than 1F6-vcMMAE”. Besides, the “effect on the proliferation of WSU-NHL cells” value in the data set on WSU-NHL cells was “dose-dependent inhibitory effects”. For the same molecule, the “effect on proliferation of Jurkat cells” value with CD70^− Jurkat cells was “not affected”.
